Data reported in patent US20160297892A1 (Novo Nordisk, published 2016).
Numbering of substitutions follows the chain as printed.

T1: human Protein S (plasma derived) (human, UniProt P07225 42-676)
T1 construct: Bought plasma-derived human Protein S (Haematologic Technologies or Enzyme Research Laboratories); also called Plasma PS; free Protein S
T1 sequence: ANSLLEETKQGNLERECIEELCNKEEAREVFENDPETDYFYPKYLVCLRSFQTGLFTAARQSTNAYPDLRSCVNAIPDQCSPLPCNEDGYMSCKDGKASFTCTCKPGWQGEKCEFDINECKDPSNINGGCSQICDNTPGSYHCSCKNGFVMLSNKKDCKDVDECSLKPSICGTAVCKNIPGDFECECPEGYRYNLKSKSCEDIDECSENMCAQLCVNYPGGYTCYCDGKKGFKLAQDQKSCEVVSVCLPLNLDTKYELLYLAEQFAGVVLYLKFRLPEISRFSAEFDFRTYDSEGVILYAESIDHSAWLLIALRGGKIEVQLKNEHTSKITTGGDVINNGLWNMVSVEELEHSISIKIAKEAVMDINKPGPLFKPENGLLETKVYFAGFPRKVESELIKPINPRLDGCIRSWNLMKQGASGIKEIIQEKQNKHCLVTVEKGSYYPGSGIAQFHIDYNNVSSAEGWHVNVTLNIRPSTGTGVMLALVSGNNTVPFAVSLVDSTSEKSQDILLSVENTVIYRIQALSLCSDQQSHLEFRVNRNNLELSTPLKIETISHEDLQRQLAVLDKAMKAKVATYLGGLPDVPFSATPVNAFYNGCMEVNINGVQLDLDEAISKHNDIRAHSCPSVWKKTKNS

T2: EGF1-4 domains of human Protein S with C-terminal HPC4 tag (human, UniProt P07225 114-286, partial hydroxylation of Asn or Asp in the EGF domains (detected by MS))
T2 construct: also called hEGF1-4; human Protein S EGF1-4
T2 sequence: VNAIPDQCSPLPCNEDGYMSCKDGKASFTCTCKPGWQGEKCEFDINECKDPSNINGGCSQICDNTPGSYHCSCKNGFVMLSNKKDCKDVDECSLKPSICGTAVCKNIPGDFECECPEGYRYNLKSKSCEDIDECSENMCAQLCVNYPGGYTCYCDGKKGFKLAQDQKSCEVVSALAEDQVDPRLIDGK

T3: EGF domain 3 and 4 of recombinant human Protein S (human, UniProt P07225 201-286, limits assumed)
T3 construct: domain: EGF domain 3 and 4; also called hEGF3-4
T3 sequence (looked up): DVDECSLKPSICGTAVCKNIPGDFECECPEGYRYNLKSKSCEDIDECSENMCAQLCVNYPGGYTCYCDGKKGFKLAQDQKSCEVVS

T4: Gla-domain deleted recombinant human Protein S (human, UniProt P07225 114-676)
T4 construct: also called hPS-dGla; desGla human Protein S
T4 sequence: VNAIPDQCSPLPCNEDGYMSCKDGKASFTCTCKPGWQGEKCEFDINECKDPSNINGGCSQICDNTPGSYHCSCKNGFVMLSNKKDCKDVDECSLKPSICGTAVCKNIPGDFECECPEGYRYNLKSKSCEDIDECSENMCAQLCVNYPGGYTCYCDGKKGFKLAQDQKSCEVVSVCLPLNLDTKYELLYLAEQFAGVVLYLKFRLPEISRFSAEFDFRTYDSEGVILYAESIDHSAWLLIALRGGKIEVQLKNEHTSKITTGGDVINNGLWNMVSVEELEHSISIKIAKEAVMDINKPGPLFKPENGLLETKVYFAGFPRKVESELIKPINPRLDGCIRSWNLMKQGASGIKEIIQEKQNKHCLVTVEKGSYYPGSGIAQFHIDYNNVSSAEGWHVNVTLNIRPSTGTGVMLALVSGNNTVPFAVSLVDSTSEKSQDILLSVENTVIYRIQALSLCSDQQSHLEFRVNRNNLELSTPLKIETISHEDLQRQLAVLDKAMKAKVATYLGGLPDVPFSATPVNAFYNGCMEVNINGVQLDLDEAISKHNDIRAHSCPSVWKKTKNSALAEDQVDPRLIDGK

T5: EGF domain 1 and 2 of recombinant human Protein S (human, UniProt P07225 114-200, limits assumed)
T5 construct: domain: EGF domain 1 and 2; also called hEGF1-2
T5 sequence (looked up): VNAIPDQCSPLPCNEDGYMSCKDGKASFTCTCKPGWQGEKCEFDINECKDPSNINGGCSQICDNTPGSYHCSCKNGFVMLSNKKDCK

B1: M-hProtS-2F382A1 monoclonal antibody (antibody, mouse IgG1, V domains shown)
VH: EVKLEESGGGLVQPGGSMKLSCAASGFTFSDAWMGWVRQSPEKGLEWVAEIRGKANNHATYYSESVKGRFTISRDDSKSSVYLQMNSLRAEDTGIFYCCLITAFLFDYWGQGTTLTVSS
VL: QIVLTQSPAIMSASPGEKVTMTCSGRSSENYMYWYQQKPGSPPRLWIYDTSNLVSGVPARFSGSRSGTSYSLTISSMEAEDAATYYCQQFNGYPYTFGGGTKLEIRR
notes: Purified from hybridoma supernatant; mouse IgG1, kappa
B2: M-hProtS-2F380A1 monoclonal antibody (antibody, mouse IgG1, V domains shown)
VH: EVKLEESGGGLVQPGGSMKLSCAASGFTFSDAWMDWVRQSPEKGLEWVAEVRSKADNHATYYAESVKGRFTISRDDSKSAVYLQMNSLRPEDTGIYYCTLTTAFLFDSWGQGTTLTVSS
VL: QIALTQSPAIMSASPGEKVTMTCSVNSSVSYMHWYQQKPGSSPRLWIYDTSNLVSGVPGRFSGSGSGTSYSLTLSSMEAEDAATYYCQQYSGYLYTFGGGTKLEIKR
notes: as for B1
B3: M-hProtS-6F153A2 monoclonal antibody (antibody, mouse IgG1, V domains shown)
VH: QIQLVQSGPELKKPGETVKISCKASGYTFSDYSMHWVKQTPGEGLKWMGWMNTGTGEPTYADDFKGRFAFSLETSATTAHLQINNLKNEDTATYFCARRLYYGTGLAYWGQGTLVTVSA
VL: DIVMTQSHKFMSTSVGDRVSITCKASQDVSTGVAWYQQKPGQSPKLLIFSASSRYSGVPDRFTGSGSGTDFTFTISSVQAEDLAVYYCQQHYSSPRTFGGGTKLEIKR
notes: Tested as antibody purified from hybridoma supernatant; mouse IgG1, kappa
B4: M-hProtS-6F206A1 monoclonal antibody (antibody, mouse IgG1, V domains shown)
VH: QVQLQQSGAEMVRPGSSVKISCKASGYAFSSHWMNWVKQRPGQGLEWIGQIYPGDGDTNYNGKFRGKAIVTADTSSSTAYLQLSSLTSEDTAVFFCAPGYHGTSYWFAYWGQGTLVTVSA
VL: DIQMSQSPSSLSASLGDTVTITCHASQNINIWLSWYQQKPGNILTLLIYKASNLYTGVPSRFSGSGSGTDFTLTISSLQPEDIATYYCQQGQSFPLTFGTGTRLELKR
notes: as for B1
B5: M-hProtS-6F128A2 monoclonal antibody (antibody, mouse IgG1, V domains shown)
VL: SIVMTQTPKFLLVSAGDRVTITCKASQSVSNDVAWYQQKPGQSPKLLIYYASNRYTGVPDRFTGSGYGTDFTFTISTVQAEDLAVYFCQQDYSSPYTFGGGTKLEIKR
V domain: QVQLQQPGAELVRPGASVKLSCKASGYTFTSYWINWVKQRPEQGLEWIGRIDPYDSETHYNQKFKDKAILTVDKSSSTAYMQLSSLTSEDSAVYYCARWGGSGYAMDYWGQGTSATVSS
notes: as for B3
B6: M-hProtS-2F188A1 monoclonal antibody (antibody, mouse IgG1, V domains shown)
VH: QVQLQQPGAELVRPGTSVKLSCKASGYTVTSYWMNWIKQRPEQGLEWIGRIDPNDSETLYNQKFKDKVILTVDKSSSTVYIQLSSLTSEDSAVYYCARWAGSGYAMDYWGQGTSVTVSS
VL: QIVLTQSPALLSASPGEKVTMTCSASSSVSYMYWYQQKPGSSPKPWIYVTSNLASGVPARFSGSGSGTSYSLTISSMEAEDAATYYCHQWSSDPYTFGGGTKLEIRR
notes: as for B1
B7: M-hProtS-6F216A3 (mAb 0914) monoclonal antibody (antibody, V domains shown)
VH: B5 V domain with A115V
VL: B6 VL with T5S, L10I, S24R, V49A, S76R, M77V, H88Q, D93I, Y95P, R106K
notes: Mouse IgG1, kappa
B8: M-hProtS-6F120A1 monoclonal antibody (antibody, mouse IgG1, V domains shown)
VH: EIQLQQSGPELVKPGASVKVSCKASGYSFTDYNMYWVKQSHGKSLEWIGYIDPYNGGTSYNQKFKGKATLTVDKSSSTAFMHLNSLTSEDSAVYYCARERDYWYFDVRGAGTTVTVSS
VL: DIVLTQSPASLAVSLGQRATISCRASKSVSASGYSYMHWYQQKPGQPPKLLIYLASNLESGVPARFSGSGSGTDFTLNIHPVEEEDAATYYCQHSRELPLTFGAGTKLELKR
notes: as for B1
B9: M-hProtS-6F265A1 monoclonal antibody (antibody, mouse IgG1, V domains shown)
VH: QVQLKESGPGLVAPSQSLSITCTVSGFSLTSYGVHWVRQPPGKGLGWLGVIWAGGRTDYNSALMSRLSISKDNSKSQVFLKMNSLQTDDTAIYYCARDYGNYNYAMDYWGQGISVTVSS
VL: ETTVTQSPASLSMAIGEKVTIRCITSTDIDDDVNWYQQKPGEPPKLLISEGNILRPGVPSRFSSSGYGTDFVFSIENMLSEDVGDYYCLQSDTLPTFGGGTKLEIKR
notes: as for B3
B10: M-hProtS-3F38A2 monoclonal antibody (antibody, mouse IgG1, V domains shown)
VH: EVLLQQSGPELVKPGASVKIPCKASGYTFTDYNMDWVKQSHGKSLEWIGDINPNNGDTFYNQKFKGKATLTVDKSSSTAYMELRSLTSEDTAVYYCARSEIFTTAPDYGMGYWGQGTSVTVSS
VL: ENVLTQSPAIMSASPGEKVTMTCRASSSVSSSYLHWYQQRSGASPKLWIYGTSNLASGVPARFSGSGSGTSYSLTISSVEAEDAATYYCQQYSGYPRTFGGGTKLEIKR
notes: as for B1
B11: M-hProtS-3F62A5 monoclonal antibody (antibody, mouse IgG1, V domains shown)
VH: B10 VH with P21T, N52D, D57G, F59I, K63E, K65T, K74T, A97V, M110V, G111D
VL: B10 VL with Q38R, R40K, G51S, S78R, L105V
notes: as for B1
B12: M-hProtS-6F151A2 monoclonal antibody (antibody, mouse IgG1, V domains shown)
VH: EVQLQQSGAELVRSGASVKLSCTASGFNIKDNYIHWVKQRPEQGLEWIGWIDPENGDTEYAPKFQGKATMTADTSSNTAYLQLSSLTSEDTAVYYCSAYGAAYWGQGTLVTVSA
VL: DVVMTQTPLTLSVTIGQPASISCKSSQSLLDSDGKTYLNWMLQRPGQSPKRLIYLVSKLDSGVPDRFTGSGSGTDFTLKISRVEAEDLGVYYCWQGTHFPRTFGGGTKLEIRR
notes: as for B1

Tests used:
Experiment in all cases: ELISA, calcium-free TBS;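 further: binding of mouse antibodies detected by ELISA with an HRP-conjugated goat anti-mouse IgG secondary and TMB substrate development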
[1] = target: T1, human Protein S (plasma derived)
Procedure: (§1) After incubation and washing a HRP-labelled goat-anti-mouse IgG secondary antibody (Jackson) was added and the ELISA was developed after incubation and wash by addition of 3,3′,5,5′-Tetramethylbenzidine.

[2] = target: T2, EGF1-4 domains of human Protein S with …
Procedure: as §1

[3] = target: T3, EGF domain 3 and 4 of recombinant human …
Procedure: as §1

[4] = target: T4, Gla-domain deleted recombinant human …
Procedure: as §1

[5] = target: T5, EGF domain 1 and 2 of recombinant human …
Procedure: as §1

Binder | binding result [1] | binding result [2] | binding result [3] | binding result [4] | binding result [5]
B1 | binds | binds | no binding | binds | –
B2 | binds | binds | no binding | binds | –
B3 | binds | binds | no binding | binds | no binding
B4 | binds | binds | no binding | binds | –
B5 | binds | binds | no binding | binds | –
B6 | binds | binds | no binding | binds | –
B7 | – | – | no binding | – | –
B8 | binds | binds | no binding | binds | no binding
B9 | – | binds | no binding | binds | –
B10 | binds | binds | no binding | binds | no binding
B11 | binds | binds | no binding | binds | no binding
B12 | binds | binds | no binding | binds | –
